Results published in PMC5555656 (Molecular Biology of the Cell, 2017).

Molecular target: T1, hexahistidine (his6)-tagged Qc-SNARE Vam7 (yeast, UniProt P32912 1-316)
T1 sequence (looked up): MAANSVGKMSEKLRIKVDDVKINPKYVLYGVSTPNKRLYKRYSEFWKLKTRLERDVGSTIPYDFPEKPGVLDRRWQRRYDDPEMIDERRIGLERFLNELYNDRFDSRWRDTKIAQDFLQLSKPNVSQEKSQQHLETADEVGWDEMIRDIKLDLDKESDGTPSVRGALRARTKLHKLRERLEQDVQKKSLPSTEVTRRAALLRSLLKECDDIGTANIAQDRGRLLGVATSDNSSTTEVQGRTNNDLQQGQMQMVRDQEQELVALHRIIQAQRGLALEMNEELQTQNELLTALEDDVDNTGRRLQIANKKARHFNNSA
Test: pull-down

binding result: binds
B1: yeast vacuolar R-SNARE Nyv1, membrane-anchored (natural protein, UniProt Q12255 1-253, looked up)
chain: MKRFNVSYVEVIKNGETISSCFQPFQKNENYGTITSANEQITPVIFHNLIMDMVLPKVVPIKGNKVTKMSMNLIDGFDCFYSTDDHDPKTVYVCFTLVDMPKILPIRILSGLQEYESNATNELLSSHVGQILDSFHEELVEYRNQTLNSSGNGQSSNGNGQNTISDIGDATEDQIKDVIQIMNDNIDKFLERQERVSLLVDKTSQLNSSSNKFRRKAVNIKEIMWWQKVKNITLLTFTIILFVSAAFMFFYLW
